Laboratory results reported in CN115536747A (YIKESITE BEIJING PHARMACEUTICAL TECH DEVELOPMENT CO LTD, dated 2022).
Positions count from the first letter of the chain named.

T1: TROP2抗原 (TROP2-Fc融合蛋白, Acrobiosystems, 目录号TR2-H5253) (human, UniProt P09758 27-274)
T1 construct: not shown: human antibody Fc
T1 sequence (looked up): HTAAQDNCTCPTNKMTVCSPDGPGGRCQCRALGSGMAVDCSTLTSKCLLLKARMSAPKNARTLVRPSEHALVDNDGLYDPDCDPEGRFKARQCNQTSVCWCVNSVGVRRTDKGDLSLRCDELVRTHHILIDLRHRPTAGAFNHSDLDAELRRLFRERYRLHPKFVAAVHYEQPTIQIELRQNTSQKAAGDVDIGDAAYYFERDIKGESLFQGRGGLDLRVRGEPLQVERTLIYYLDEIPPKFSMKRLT

T2: Human TROP-2 (人TROP2蛋白, SPR antigen) (human, UniProt P09758 27-274, limits assumed)
T2 construct: The construct used in SPR is not described
T2 sequence (looked up): T1 sequence (looked up)

T3: Rhesus TROP-2 (猴TROP2蛋白, SPR antigen) (Rhesus (the 2nd table); 食蟹猴 (text paragraph 139), UniProt A0A5F8AGB8 27-274)
T3 construct: also called 食蟹猴TROP2
T3 sequence: T1 sequence (looked up) with M36V, S67N, I204V

T4: 人TROP2 on cells (表达TROP2的CHO细胞系; MCF, MDA-MB-231, MDA-MB-468, HCC1395 breast cancer cells) (human, UniProt P09758 27-323)
T4 construct: whole, on cells; also called 细胞膜表面的TROP2抗原; 人细胞表面抗原TROP2
T4 sequence (looked up): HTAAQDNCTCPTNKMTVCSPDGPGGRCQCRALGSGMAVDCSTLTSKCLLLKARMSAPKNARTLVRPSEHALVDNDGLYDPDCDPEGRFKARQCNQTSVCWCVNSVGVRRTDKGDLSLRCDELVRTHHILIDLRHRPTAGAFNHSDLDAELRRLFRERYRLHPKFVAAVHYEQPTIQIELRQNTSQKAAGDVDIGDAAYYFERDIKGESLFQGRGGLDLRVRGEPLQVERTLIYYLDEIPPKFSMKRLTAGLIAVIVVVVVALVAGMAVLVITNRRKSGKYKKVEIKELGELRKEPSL

B1: 1F7单链抗体 (scFv shown on M13 phage) (scFv)
scFv: QVQLVQSGAEVKKPGASVKVSCKASGYTFTSYGINWVRQATGRGLEWMGWMNPNSGNTGYAQKFQGRVTITADESTSTAYMELSSLRSEDTAVYYCARPNTGGDGAFDIWGQGTMVTVSSGGSSRSSSSGGGGSGGGGDIQLTQSPSSVSASVGDRVTITCRASQGISSWLAWYRQKPGKAPKLLIYAASSLQSGVPSRFSGSGSGTDFTLTISSLQPEDFATYYCQQANSFPITFGQGTRLEIK
notes: The phage coat protein fusion is not described; also called hit
B2: 1F7亲本抗体 (IgG形式) (antibody, V domains shown)
VH: QVQLVQSGAEVKKPGASVKVSCKASGYTFTSYGINWVRQATGRGLEWMGWMNPNSGNTGYAQKFQGRVTITADESTSTAYMELSSLRSEDTAVYYCARPNTGGDGAFDIWGQGTMVTVSS
VL: DIQLTQSPSSVSASVGDRVTITCRASQGISSWLAWYRQKPGKAPKLLIYAASSLQSGVPSRFSGSGSGTDFTLTISSLQPEDFATYYCQQANSFPITFGQGTRLEIKR
B3: 突变体F7A (IgG形式) (antibody, V domains shown)
VH: B2 VH with S31N, N54R
VL: B2 VL with A50R, S52R, I96V
B4: 双特异性抗体F7AK3 (TROP2×CD3, cFIST形式) (bispecific antibody, human IgG4 S228P, kappa)
heavy: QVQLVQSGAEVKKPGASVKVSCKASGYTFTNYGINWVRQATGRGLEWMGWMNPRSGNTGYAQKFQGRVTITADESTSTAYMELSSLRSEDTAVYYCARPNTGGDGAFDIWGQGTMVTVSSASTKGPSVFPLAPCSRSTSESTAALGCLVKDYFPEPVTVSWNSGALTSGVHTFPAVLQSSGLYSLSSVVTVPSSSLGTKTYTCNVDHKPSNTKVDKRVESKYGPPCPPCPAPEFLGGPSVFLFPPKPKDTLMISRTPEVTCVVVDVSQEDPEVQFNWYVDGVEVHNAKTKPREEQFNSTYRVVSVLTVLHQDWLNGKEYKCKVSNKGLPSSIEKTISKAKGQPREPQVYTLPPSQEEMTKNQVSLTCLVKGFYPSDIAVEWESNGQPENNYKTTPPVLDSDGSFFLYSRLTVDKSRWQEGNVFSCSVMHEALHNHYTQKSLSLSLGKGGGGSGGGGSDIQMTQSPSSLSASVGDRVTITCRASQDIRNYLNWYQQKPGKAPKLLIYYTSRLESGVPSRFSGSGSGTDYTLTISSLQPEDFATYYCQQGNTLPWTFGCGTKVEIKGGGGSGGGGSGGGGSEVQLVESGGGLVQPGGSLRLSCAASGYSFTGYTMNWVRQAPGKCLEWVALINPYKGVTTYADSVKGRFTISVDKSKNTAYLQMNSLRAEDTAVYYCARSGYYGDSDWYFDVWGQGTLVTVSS
light: DIQLTQSPSSVSASVGDRVTITCRASQGISSWLAWYRQKPGKAPKLLIYRARSLQSGVPSRFSGSGSGTDFTLTISSLQPEDFATYYCQQANSFPVTFGQGTRLEIKRTVAAPSVFIFPPSDEQLKSGTASVVCLLNNFYPREAKVQWKVDNALQSGNSQESVTEQDSKDSTYSLSSTLTLSKADYEKHKVYACEVTHQGLSSPVTKSFNRGEC
notes: also called F7AK3双抗

Key:
[1] = molecular target: T1, TROP2抗原 (TROP2-Fc融合蛋白, Acrobiosystems, …); assay: monoclonal phage ELISA, TROP2 antigen coated at 1 μg/ml, positive = more than 3x negative control
[2] = molecular target: T2, Human TROP-2 (人TROP2蛋白, SPR antigen); assay: ELISA (内在亲和力)
[3] = molecular target: T2, Human TROP-2 (人TROP2蛋白, SPR antigen); assay: SPR, IgG
[4] = molecular target: T3, Rhesus TROP-2 (猴TROP2蛋白, SPR antigen); assay: SPR, IgG
[5] = molecular target: T2, Human TROP-2 (人TROP2蛋白, SPR antigen); assay: SPR, IgG; reference 1F7
[6] = molecular target: T3, Rhesus TROP-2 (猴TROP2蛋白, SPR antigen); assay: SPR, IgG; reference 1F7
[7] = molecular target: T4, 人TROP2 on cells (表达TROP2的CHO细胞系; MCF, …); assay: flow cytometry on MDA-MB-231 cells, PE anti-human IgG Fc
人T细胞的CD3 (CD3+ T细胞) = molecular target: T5, 人T细胞的CD3 (CD3+ T细胞) (human, UniProt P07766 23-207; P04234 22-171; P09693 23-182; P20963 22-164); assay: flow cytometry on CD3+ T cells, PE anti-human IgG Fc
T5 construct: whole, on cells; also called T细胞表面抗原CD3

[8] = molecular target: T4, 人TROP2 on cells (表达TROP2的CHO细胞系; MCF, …); assay: flow cytometry on HCC1395 cells, PE anti-human IgG Fc
[9] = molecular target: T4, 人TROP2 on cells (表达TROP2的CHO细胞系; MCF, …); assay: flow cytometry on MCF cells, PE anti-human IgG Fc
[10] = molecular target: T4, 人TROP2 on cells (表达TROP2的CHO细胞系; MCF, …); assay: flow cytometry on MDA-MB-468 cells, PE anti-human IgG Fc

T5 sequence (P07766 23-207, chain 1 of 4): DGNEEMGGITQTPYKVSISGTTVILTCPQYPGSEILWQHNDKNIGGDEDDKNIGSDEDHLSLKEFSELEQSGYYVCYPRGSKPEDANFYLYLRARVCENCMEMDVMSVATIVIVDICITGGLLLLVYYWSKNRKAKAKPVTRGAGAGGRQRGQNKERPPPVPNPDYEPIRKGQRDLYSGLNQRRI
T5 sequence (P04234 22-171, chain 2 of 4): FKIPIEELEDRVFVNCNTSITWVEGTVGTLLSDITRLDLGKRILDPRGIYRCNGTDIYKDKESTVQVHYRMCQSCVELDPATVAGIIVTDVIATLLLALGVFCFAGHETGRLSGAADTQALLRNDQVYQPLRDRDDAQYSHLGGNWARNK
T5 sequence (P09693 23-182, chain 3 of 4): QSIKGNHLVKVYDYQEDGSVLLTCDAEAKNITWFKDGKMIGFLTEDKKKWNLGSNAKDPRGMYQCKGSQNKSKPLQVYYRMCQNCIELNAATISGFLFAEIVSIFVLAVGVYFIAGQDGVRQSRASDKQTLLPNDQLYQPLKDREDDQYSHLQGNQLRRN
T5 sequence (P20963 22-164, chain 4 of 4): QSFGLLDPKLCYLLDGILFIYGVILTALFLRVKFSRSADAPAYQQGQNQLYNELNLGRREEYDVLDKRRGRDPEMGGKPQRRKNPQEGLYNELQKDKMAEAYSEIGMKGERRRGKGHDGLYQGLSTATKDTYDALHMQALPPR

| Binder | binding result [1] | Kd [2] [nM] | Kd [3] [nM] | koff [3] [s⁻¹] | kon [3] [M⁻¹ s⁻¹] | Kd [4] [nM] | koff [4] [s⁻¹] | kon [4] [M⁻¹ s⁻¹] | fold improvement of binding against 1F7 [5] | fold improvement of affinity against 1F7 [6] | EC50 [7] [µg/mL] | EC50 (人T细胞的CD3 (CD3+ T细胞)) [µg/mL] | EC50 [8] [µg/mL] | EC50 [9] [µg/mL] | EC50 [10] [µg/mL] |
| --- | --- | --- | --- | --- | --- | --- | --- | --- | --- | --- | --- | --- | --- | --- | --- |
| B1 | binds |  |  |  |  |  |  |  |  |  |  |  |  |  |  |
| B2 |  | ~7.5 | 7.57 | 0.000892 | 118000 | 40.7 | 0.000942 | 23100 |  |  |  |  |  |  |  |
| B3 |  |  | 4.35 | 0.000834 | 192000 | 12.8 | 0.00165 | 128000 | 1.74 倍 | 3.18 倍 |  |  |  |  |  |
| B4 |  |  |  |  |  |  |  |  |  |  | 0.0891 | 0.568 | 0.0532 | 0.205 | 0.0668 |
